Reference: the supplement of paper PMC12042874
± gives the uncertainty stated by the source.

Test: amyloid nucleation score (Sup35N fusion, yeast selection) (log enrichment); library NNK1; higher = more nucleation; inactive = no reads after selection
Outline: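 Output and input plasmid inserts were sequenced by Illumina after psi-negative yeast carrying Sup35N fused to peptides of 20 random codons had been induced 24 hours with 100 μM copper sulfate and grown 7 days at 30°C on medium lacking adenine and uracil. The nucleation score is the DiMSum log enrichment of output over input reads, centred on the mode score of non-aggregating sequences. Sequences with under 100 input reads were excluded.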

Substance | amyloid nucleation score
VFYDNSARSVCNPNYGWTFS | 0.181 ± 0.48
VGCADEMVPMEFMCWLGIIF | -0.909 ± 2.7
VGCFLIKSGEQ | -0.385 ± 0.36
VGFVATNCRWSCFS | 5.5 ± 0.11
VGHYDNSYGRNGLLTTR | -0.179 ± 0.53
VGIILRLVQYSDEYYSCYAG | -2.62 ± 2.4
VGLIDANTSSTSWCEGMRNS | -0.321 ± 0.47
VGLSVRACNFTRVGLMSFRD | 0.388 ± 0.37
VGNSSGWLTNHLAEKRGQTM | 0.268 ± 1.1
VGNWYPGIG | inactive
VGRACRPDWFLFLRRRKGSR | -0.344 ± 0.44
VGSNYVCVI | -0.545 ± 0.5
VGSSVPGCRAGVFGLLDRCI | -0.489 ± 1.7
VGTFTTELKVVGRIDIVWAR | 0.723 ± 0.46
VGVYGRYIV | -0.135 ± 0.28
VGWFSNESWYLAVNDYGPA | 0.335 ± 0.3
VGYLFRSTSFV | inactive
VHATLLNHA | 0.898 ± 0.64
VHKAGDFNVTAFVNSNVFVS | inactive
VHKDFHANANRVSWQLAL | -0.243 ± 0.73
VHLCLCRCVLCAENGLWPFS | -0.761 ± 1.2
VHRDFGSENYSTLEVCNSLT | 1.16 ± 0.84
VIAILLDGHLKVFTTLGYNR | -1.59 ± 1.5
VIAKRPSMWGSKRNFRLVRV | 0.512 ± 0.88
VIDKDGVANGKVVLASHCVN | -0.766 ± 0.86

Substance | amyloid nucleation score
VIFYTFMVRTITACCLKLWV | inactive
VIHYCYSCFSADQAGLLFTR | 2.22 ± 0.14
VINIFMVSLANTETDPTAHL | 8.324 ± 0.071
VINRSQIRGHRAFSWVGPSL | 0.53 ± 0.38
VIQHIYAKDSNCSHLV | -0.529 ± 0.52
VIRYSIKSCFLYIKTYQGYM | -0.907 ± 0.43
VITSVGWMLVYENQFTNLHL | 6.855 ± 0.048
VKALGHLRPTWLEKGCNHA | 0.289 ± 0.25
VKATLSFSQFLHVVSYWGF | -0.342 ± 0.71
VKFDLMAI | -0.777 ± 1.7
VKGVD | 1.19 ± 0.64
VKNWMYWQGMSVCRVCRGFY | 1.02 ± 0.38
VKSYNGVGTMYLSRIMLYQY | 0.163 ± 1.4
VKTYRPVSRGAKNKVRLAQG | 0.642 ± 0.49
VKVHEDSIRMEENSSDTYFK | -0.218 ± 0.34
VLDFLYILCVTLANDFLKGW | 0.961 ± 0.76
VLEDCNMRGK | 0.789 ± 0.36
VLGISLSERNLKGIV | 0.232 ± 0.32
VLHCCNAESWLGGWPLGVKN | 0.85 ± 0.6
VLIKLCGYTILIRFGRFLCR | -0.203 ± 0.61
VLILELDGS | -1.11 ± 2.7
VLILVDGSKMAPTALSCYSH | 1.34 ± 0.49
VLKPSLGGCLSHSVMLKLSD | inactive
VLLFVRLILWTEGRYNCIMG | -0.801 ± 1.2
VLRFGRWSYFVGVLPEKKRQ | -1.18 ± 2.4

Substance | amyloid nucleation score
VLSFDLVTVVGNKFLVWIKR | 0.276 ± 0.52
VLSFVLDYCNAEV | 0.653 ± 0.45
VLSRLCLYVSVMSRDNKYGS | 2.38 ± 0.46
VLTRMDKFGARQTSVTQEAG | 0.102 ± 0.62
VLYGLGSWLVRNIVLSYSVV | 0.106 ± 0.24
VLYLDLFWRPPSLKGLL | -0.17 ± 0.32
VMAMSMLYSLMRNGKKLHFK | 1.67 ± 0.6
VMDGYVSGCFLWRCCNRNRS | 2.92 ± 0.12
VMGIDSFTYAG | -0.315 ± 0.54
VMHYYTSVYDVNYVRYSPPW | 1.16 ± 0.35
VMPRTES | 0.408 ± 0.9
VMQFGVSGNAGC | 0.778 ± 0.55
VMRNYFRDPDRPRLKWIYLS | 7.095 ± 0.048
VMSSKDKLIWYTFL | 5.199 ± 0.049
VMTRNTCVQVGLEGTSQFAG | 0.435 ± 0.26
VMTVMVFMRYRGRFVYG | -0.041 ± 0.98
VMVIMDS | 2.11 ± 0.21
VMVQANYMSSSSRSAYLSNM | inactive
VMWGQPCQIFSGYAYLRHKV | 0.053 ± 0.48
VMYHGVLYLVNKKVRAWVVG | -0.511 ± 0.76
VNAIRSHAVWNGGQGPRFHS | -0.098 ± 0.42
VNAPST | 0.413 ± 1.1
VNFYDRAYRIWCCRNASE | 3.34 ± 0.088
VNIRRRTLFS | 0.023 ± 0.3
VNKLLS | -0.04 ± 0.28

Substance | amyloid nucleation score
VNMRASSSMLTTVVAFIFPG | 6.521 ± 0.047
VNRFCSVQVDS | 0.074 ± 0.47
VNSCFSQYYKGHPTLMHERL | 0.01 ± 0.39
VNSLVVLF | 1.84 ± 0.23
VNSNGTPCSMGIHMSGSYSP | 0.226 ± 0.48
VNTIQASMYW | 1.22 ± 0.62
VNTVMGTMQLKLCHKLRIVG | 0.19 ± 0.71
VNVCESTPPDVESRGVCDAG | 2.06 ± 0.1
VNVGRKYGAVLGPGVNYGAK | 0.142 ± 0.29
VNWVLIERWVVS | -1.13 ± 0.85
VPCLVRA | 0.506 ± 0.99
VPGRWHSLCASYTLYA | 0.469 ± 0.72
VPMPGNDQWDGKRGYICIRS | 1.31 ± 0.48
VPNASLSWISFISHLFYMSS | 0.034 ± 0.37
VPNFDQSNGQCIGDTVLMWC | 1.74 ± 0.49
VPNYHAISYIVDLTMCSLFQ | 8.383 ± 0.057
VPYVISINSMVWVGHRPVLP | 6.132 ± 0.057
VPYVRMNVR | 2.24 ± 0.14
VQAVIWWRGRDYGRHRSRPW | -0.35 ± 0.35
VQETYGYLYRNNIDRGGHIN | 2.07 ± 0.56
VQNDTTLHVIFILGRAW | 2.44 ± 0.12
VQSSFSFYDVVNSPGHRWTW | 0.14 ± 0.45
VQYLMWSFTVAKLVMQDYHG | 0.835 ± 0.43
VRACSCMDCDTVYRNVLSMG | -1.79 ± 2.4
VRENLNMLEIHRLGGVKKCV | -1.06 ± 0.95

Substance | amyloid nucleation score
VRFGWVSSTPVVGVSQLCAH | -0.305 ± 1.1
VRFLISHRESVLKSMAGCVV | 0.815 ± 0.93
VRFSLHDRGRQTRTCYSPWA | 0.006 ± 0.36
VRHGRSYSFLRQGDFMWCGS | -0.306 ± 0.57
VRKEKRNCAGLGRTVVWVRG | 0.461 ± 0.35
VRLCIVHHG | 0.527 ± 0.49
VRLIRGGFDGHADNAVCRWQ | 0.279 ± 0.7
VRMNCMDYQFNYLSLLLRTI | -0.401 ± 0.45
VRNNYSTSIRVVRMAIMWPG | 5.83 ± 0.078
VRPNGVYSFRWTYGFPIQRA | 0.321 ± 0.6
VRTPRRCCSY | -0.096 ± 0.28
VRVFGVTEYNRSCSI | -0.847 ± 1.1
VRVKLKGLFGFNWDG | 0.36 ± 1.2
VRVPLRSKMSNPRLMSRQAA | 0.089 ± 0.49
VRYFCTFLWWSTIRQAQYNI | 0.218 ± 0.78
VRYYMALMRWDDNVNSMCMG | inactive
VSFNCTNGFRIKHVLWSTDN | 1.09 ± 0.17
VSGESDSYRVGFSEACLRKL | -0.849 ± 0.65
VSGFGSTYLLCVN | 0.589 ± 1.2
VSIRFSCRRIYNFLVEFPLG | -0.102 ± 0.19
VSKDSSIQRGSRQFCYLAYS | 1.08 ± 0.61
VSMATAVF | 1.22 ± 0.64
VSNVRNSCLHLSARLYSTDL | -0.702 ± 0.91
VSPSIRMGNQGSSFSVLNAL | 0.149 ± 0.55
VSQHSERQGAVCNRCFIVWR | 6.101 ± 0.057
